One may read the Kd as the constant that tells how readily two partners part at equilibrium.

The test deals with F-actin. The experiment in a line: cosedimentation with F-actin through a sucrose cushion, SDS-PAGE.

As to MacMARCKS, the equilibrium dissociation constant (Kd) amounted to 53 nM and the stoichiometry (actin monomers per MacMARCKS) amounted to 12.

The values are drawn from patent publication US5885772.
